Measurements published in paper PMC10140047.

Biological target: T1, TwinStrep-BICD2 WT (mouse), Q921C5
T1 chain: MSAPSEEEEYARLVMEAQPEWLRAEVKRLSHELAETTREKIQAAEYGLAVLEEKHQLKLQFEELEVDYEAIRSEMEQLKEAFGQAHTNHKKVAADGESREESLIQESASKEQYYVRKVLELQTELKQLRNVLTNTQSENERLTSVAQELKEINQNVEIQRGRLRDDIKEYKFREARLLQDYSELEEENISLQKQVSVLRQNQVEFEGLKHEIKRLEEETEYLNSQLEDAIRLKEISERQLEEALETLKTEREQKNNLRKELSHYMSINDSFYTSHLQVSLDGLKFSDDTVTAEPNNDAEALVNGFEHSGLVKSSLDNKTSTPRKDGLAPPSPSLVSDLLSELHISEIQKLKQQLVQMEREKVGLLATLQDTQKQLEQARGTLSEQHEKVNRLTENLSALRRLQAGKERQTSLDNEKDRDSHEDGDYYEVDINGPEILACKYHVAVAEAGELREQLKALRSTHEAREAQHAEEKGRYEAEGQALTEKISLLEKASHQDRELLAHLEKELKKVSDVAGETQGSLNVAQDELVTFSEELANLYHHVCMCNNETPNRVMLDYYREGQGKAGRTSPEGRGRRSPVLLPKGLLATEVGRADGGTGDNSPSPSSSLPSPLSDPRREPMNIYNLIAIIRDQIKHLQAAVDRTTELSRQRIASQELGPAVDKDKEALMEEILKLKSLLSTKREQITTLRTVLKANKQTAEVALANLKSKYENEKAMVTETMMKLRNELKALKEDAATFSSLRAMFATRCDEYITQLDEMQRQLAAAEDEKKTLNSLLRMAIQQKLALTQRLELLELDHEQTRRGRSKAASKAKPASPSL
Experiment: SEC-MALS; purified TwinStrep-BICD2 WT and S102D; predicted MW of ~190 kDa
Settings: remark: other sources report otherwise

stoichiometry N: 2
B1: TwinStrep-BICD2 WT, Q921C5 1-820 (natural protein)
chain: T1 chain
